{"source": "patent US20100168026A1", "about": "“INSULIN SECRETION INDUCER, AND ACCELERATOR FOR INCREASING THE NUMBER OF PANCREATIC BETA-CELLS” (priority 2007, published 2010)", "molecules": {"B1": {"name": "hCF266(27V): Human DNA SEQ. ID. No. 4 encoding TM4SF20, 27th amino acid valine; tested as transfected-cell supernatant and adenoviral vector (protein)", "chain": "MTCCEGWTSCNGFSLLVLLLLGVVLNVIPLIVSLVEEDQFSQNPISCFEWWFPGIIGAGLMAIPATTMSLTARKRACCNNRTGMFLSSLFSVITVIGALYCMLISIQALLKGPLMCNSPSNSNANCEFSLKNISDIHPESFNLQWFFNDSCAPPTGFNKPTSNDTMASGWRASSFHFDSEENKHRLIHFSVFLGLLLVGILEVLFGLSQIVIGFLGCLCGVSKRRSQIV", "modifications": "Human", "notes": "ID; No. 4 encoding TM4SF20, 27th amino acid valine; tested as transfected-cell supernatant and adenoviral vector"}, "B2": {"name": "mCF266: Murine DNA SEQ. ID. No. 1 encoding membrane protein Tm4sf20; tested as transfected-cell supernatant, adenoviral vector and transgene (protein)", "chain": "MTCCEGWTSCNGFSLLILILLGVVINCIPLGISLVEADSTSQNPISCYEWWFPGIIGAGLMAIPATTMSLAARKRACCNNKTGMFLSSLFSVITVVGAVYCMLVSLQALLEGPLICNTQANSTVTCEFSLKNLSKFDPESFNLLWFFNGTCVSPTDFKNPTINNMVSNWKIPNSNSEEDRHRIFHFSVFMSLLLVGILELLFGLSQILIGFLGCLCGVSQRRSQIV", "modifications": "Mouse", "notes": "ID; No. 1 encoding membrane protein Tm4sf20; tested as transfected-cell supernatant, adenoviral vector and transgene"}}, "key": {"[1]": {"test_system": "pancreatic β-cells", "assay": "Surface ratio of β-cells to α-cells in STZ mice administered synthetic polypeptides A-C", "assay_type": "in vivo, C57BL/6 mouse", "conditions": "STZ mouse, 25 nmol/kg body weight i.p. twice daily for eight weeks; vs saline; FIG. 8", "method": "In the sixth embodiment, the action of synthetic polypeptides A-C on Type-1 diabetes STZ model mice was confirmed in the same manner as the third embodiment.\nFirstly a 7-week old C57BL/6 mouse (body weight approximately 18-20 g) was fasted for 18 hours from day 0 and then streptozocin dissolved in saline (100 mg/kg body weight) was administered into the interperitoneal region and free feeding was immediately allowed. […] The serum blood-glucose level was measured on the seventh day. A fasting blood glucose level of greater than or equal to 150 mg/dL was determined as diabetes and the experiment described hereafter was conducted. STZ mice determined to have diabetes were administered into the interperitoneal region twice daily the polypeptide A-C (25 nmol/kg body weight) dissolved in saline for eight weeks from the seventh day.\nThe pancreas of the STZ mice was removed and after fixing the tissue with paraformaldehyde, the tissue sample preparation office at University of Tsukuba was employed to prepare a paraffin-embedded section. […] The section was thereafter mounted on a fluorescence photobleaching prevention agent (VECTASHILD Mounting Medium; Vector) and observed through a fluorescence microscope (BZ-8000; KEYENCE) to measure the surface ratio (β-cells/α-cells) of β-cells to α-cells. […]"}, "[2]": {"test_system": "MIN6 cells", "assay": "Glucose-stimulated insulin secretion (GSIS) in MIN6 cells stimulated with culture supernatant of CF266-transfected HEK293T cells", "assay_type": "cell-based, murine", "conditions": "culture supernatant of transfected HEK293T cells : KRBH buffer 1:1 (v/v), stimulated one hour, vs Mock, FIG. 2", "method": "In Embodiment 1, an action was confirmed with respect to MIN6 cells using a culture supernatant of a HEK293T cell strain originating from fetal kidney epithelial cells transfected with CF266.\nFirstly, HEK293T cells subcultured in DMEM media enriched with 5% FCS and an antibiotic (penicillin 100 U/mL, streptomycin […]) were plated onto a 10 cm dish at a concentration of 1×10^6 cells/dish. On the following day, HEK292T cells were transfected with an expression vector for mCF266 (pCAGGS-mCF266) using a FuGENE6 (Roche) and mCF266 was forcibly expressed. After 24 hours, the media was exchanged for Opti-MEM media and after a further 24 hours, a culture supernatant was recovered.\nNext, MIN6 cells subcultured in DMEM media (high glucose, Invitrogen) enriched with 15% FCS, an antibiotic (penicillin 100 U/mL, streptomycin […]) and 2-mercaptoethanol were plated onto a 24-well plate at a concentration of 3×10^5 cells/well. On the following day, 0.5 mL/well KRBH buffer solution (2.8 mM glucose) was added and pre-culturing was conducted for 30 minutes. Then 0.5 mL/well of a mixed solution of the above culture supernatant and KRBH buffer solution (1:1(v/v)) was added and stimulated for one hour. Then glucose-stimulated insulin secretion (GSIS) was measured for the MIN6 cells. […]"}, "[3]": {"test_system": "type-1 diabetes STZ model mouse", "assay": "Oral glucose tolerance test after adenoviral expression of hCF266(27V) in STZ model mouse", "assay_type": "in vivo, C57BL/6 mouse", "conditions": "adenovirus i.v. 1×10^9 PFU/mL on day 7, OGTT on twelfth day, vs Ad GFP or Ad (−), FIG. 5", "method": "In the fourth embodiment, an adenoviral vector expressing hCF266(27V) was used to confirm the action of hCF266(27V) with respect to an STZ model mouse which is a type-1 diabetes model mouse.\nFirstly a 7-week old C57BL/6 mouse (body weight approximately 18-20 g) was fasted for 18 hours from day 0 and then streptozocin dissolved in saline (100 mg/kg body weight) was administered into the interperitoneal region and free feeding was immediately allowed. From the following day, after fasted for 18 hours the same amount of streptozocin was re-administered on the second day into the interperitoneal region and free feeding was immediately allowed. The serum blood-glucose level was measured on the seventh day. A fasting blood glucose level of greater than or equal to 150 mg/dL was determined to be diabetes and the experiment described hereafter was conducted. On the same day, a recombinant adenovirus (prepared using ViraPower which is a tradename of Invitrogen) constructed by linking hCF266(27V) to a CAG promoter was intravenously injected at a concentration of 1×10^9 PFU/mL into the caudal vein of a STZ mouse determined to be suffering diabetes. On the twelfth day, an oral glucose tolerance test (OGTT) was performed by periodically taking blood and measuring the blood-glucose level of the serum and the insulin level. […]"}, "[4]": {"test_system": "pancreatic β-cells", "assay": "Surface ratio of β-cells to α-cells in pancreas sections of STZ mice given hCF266(27V) adenovirus", "assay_type": "in vivo, C57BL/6 mouse", "conditions": "STZ mouse, adenoviral expression; vs Ad GFP or Ad (−); FIG. 6", "method": "Firstly a 7-week old C57BL/6 mouse (body weight approximately 18-20 g) was fasted for 18 hours from day 0 and then streptozocin dissolved in saline (100 mg/kg body weight) was administered into the interperitoneal region and free feeding was immediately allowed. From the following day, after fasted for 18 hours the same amount of streptozocin was re-administered on the second day into the interperitoneal region and free feeding was immediately allowed. The serum blood-glucose level was measured on the seventh day. A fasting blood glucose level of greater than or equal to 150 mg/dL was determined to be diabetes and the experiment described hereafter was conducted. On the same day, a recombinant adenovirus (prepared using ViraPower which is a tradename of Invitrogen) constructed by linking hCF266(27V) to a CAG promoter was intravenously injected at a concentration of 1×10^9 PFU/mL into the caudal vein of a STZ mouse determined to be suffering diabetes. On the twelfth day, an oral glucose tolerance test (OGTT) was performed by periodically taking blood and measuring the blood-glucose level of the serum and the insulin level.\nThe pancreas of the STZ mice was removed and after fixing the tissue with paraformaldehyde, the tissue sample preparation office at University of Tsukuba was employed to prepare a paraffin-embedded section. […]"}, "[5]": {"test_system": "type-2 diabetes model KK/Ay mouse", "assay": "Intravenous glucose tolerance test after adenoviral expression of mCF266 in KK/Ay mouse", "assay_type": "in vivo", "conditions": "adenoviral vector i.v. 6×10^9 PFU/mL, after four days, vs Ad GFP", "excerpt": "In the second embodiment, an adenoviral vector expressing mCF266 was used to confirm the action of mCF266 with respect to a KK/Ay mouse which is a type-2 diabetes model mouse.\nFirstly an adenoviral vector (prepared using ViraPower which is a tradename of Invitrogen) constructed by linking mCF266 to a CAG promoter was intravenously injected at a concentration of 6×10^9 PFU/mL into the caudal vein of a 18-week old KK/Ay mouse (body weight approximately 47-51 g) given a high-fat high-sucrose diet. After four days, an intravenous glucose tolerance test (i.v. GTT) was performed by periodically taking blood and measuring the blood-glucose level of the serum and the insulin level.\nConsequently expression of mCF266 is shown to induce insulin secretion."}, "[6]": {"test_system": "pancreatic β-cells", "assay": "Surface area and number of β-cells (islets of Langerhans) in mCF266 transgenic mice", "assay_type": "in vivo, mouse", "method": "Firstly, an mCF266 expression vector (pCAGGS-mCF266) was constructed by linking mCF266 to a CAG promoter and linearized. The University of Tsukuba Laboratory Animal Resource Center was employed to produce a transgenic mouse. The introduced gene was confirmed using PCR and southern blotting and mating for five generations with C57BL/6 mice was conducted.\nThe pancreas of the transgenic mice was removed and after fixing the tissue with paraformaldehyde, the tissue sample preparation office at University of Tsukuba was employed to prepare a paraffin-embedded section. After the section was removed from paraffin, antigen activation was performed for 30 minutes at room temperature using 0.1% Triton X-100 and then blocking was performed for one hour at room temperature using 5% skim milk. After blocking, a primary antibody reaction was performed overnight at 4° C. using polyclonal anti-insulin guinea pig antibody (Daco) and polyclonal anti-glucagon rabbit antibody (Daco). The section was washed using Tris-buffered saline containing 0.1% Tween20 (TBST). […] The section was thereafter mounted on a fluorescence photobleaching prevention agent (VECTASHILD Mounting Medium; Vector) and observed through a fluorescence microscope (BZ-8000; KEYENCE) to measure the surface area of islets of Langerhans stained by insulin relative to the pancreas surface area on the section. […]"}}}
{"molecule": "ALYCMLISIQALLKGPLMC (Human) [polypeptide A, 19 amino acid fragment, 98-116th amino acids of the hCF266(27V) polypeptide]", "values": [{"measurement": "surface ratio (β-cells/α-cells) β-cells to α-cells", "setting": "[1]", "value": "excellent"}]}
{"molecule": "B1", "values": [{"measurement": "glucose-stimulated insulin secretion (GSIS)", "setting": "[2]", "value": "excellent action"}, {"measurement": "blood glucose level (OGTT)", "setting": "[3]", "value": "significantly reduced"}, {"measurement": "surface ratio (β-cells/α-cells) of β cells to α cells", "setting": "[4]", "value": "significantly increased"}]}
{"molecule": "B2", "values": [{"measurement": "blood-glucose level (i.v. GTT)", "setting": "[5]; FIG. 3A", "value": "only a slightly low tendency"}, {"measurement": "insulin value (i.v. GTT)", "setting": "[5]; FIG. 3B", "value": "significantly higher"}, {"measurement": "number of β-cells", "setting": "[6]; transgenic mice hetero (+/−) or homo (+/+) vs wild-type (normalized to 1), FIG. 7B", "value": "conspicuously increased"}, {"measurement": "surface area of β-cells", "setting": "[6]; transgenic mice hetero (+/−) or homo (+/+) vs wild-type, FIG. 7A", "value": "conspicuously increased"}]}
